{"source": "patent US20190071480A1", "about": "(Biogen, published 2019)", "binders": {"B1": {"name": "SEQ ID NO: 260, cysteine pairs C79-C114^a, C80-C112^a, C44-C48^a (designed binder)", "chain": "AQAKHKQRKRLKSSCKRHPLYVDFSDVGWNDWIVAPPGYHAFYCHGECPFPLADHLNSTNHAIVQTLVNSVNSKIPKACCVPTELSAISMLYLDENEKVVLKNYQDMVVEGCGCR", "modifications": "disulfides C79-C114 (intra), C80-C112 (intra), C44-C48 (intra)"}, "B2": {"name": "SEQ ID NO: 260, cysteine pairs C44-C48^a (designed binder)", "chain": "B1 chain", "modifications": "disulfides C44-C48 (intra)"}, "B3": {"name": "SEQ ID NO: 260, cysteine pairs C79-C114^b, C80-C112^b, C44-C48^a (designed binder)", "chain": "B1 chain", "modifications": "disulfides C79-C114 (inter), C80-C112 (inter), C44-C48 (intra)", "notes": "homodimer by intermolecular disulfide"}, "B4": {"name": "SEQ ID NO: 260, cysteine pairs C15-C15^b, C80-C114^b, C79-C112^b, C44-C48^a (designed binder)", "chain": "B1 chain", "modifications": "disulfides C15-C15 (inter), C80-C114 (inter), C79-C112 (inter), C44-C48 (intra)", "notes": "as for B3"}, "B5": {"name": "SEQ ID NO: 260, cysteine pairs C15-C15^b, C79-C114^b, C80-C112^b, C44-C48^a (designed binder)", "chain": "B1 chain", "modifications": "disulfides C15-C15 (inter), C79-C114 (inter), C80-C112 (inter), C44-C48 (intra)", "notes": "as for B3"}, "B6": {"name": "SEQ ID NO: 324, cysteine pairs C44-C48^a (designed binder)", "chain": "B1 chain with S25K, W32H, I33A, T59D, L67K", "modifications": "disulfides C44-C48 (intra)"}, "B7": {"name": "SEQ ID NO: 292, cysteine pairs C44-C48^a (designed binder)", "chain": "GQAKRKGYKRLKSSCKRHPLYVDFKDVGWNDHAVAPPGYHAFYCHGECPFPLADHLNSDNHAIVQTKVNSVNSKDPKACCVPTELSAPSPLYLDENEKPVLKNYQDMVVHGCGCR", "modifications": "disulfides C44-C48 (intra)"}, "B8": {"name": "SEQ ID NO: 284, cysteine pairs C88-C92^a (designed binder)", "chain": "NSKIPKACCVPTELSAISMLYLDENEKVVLKNYQDMVVEGCGCRAQAKHKQRKRLKSSCKRHPLYVDFSDVGWNDWIVAPPGYHAFYCHGECPFPLADHLNSTNHAIVQTLVNSV", "modifications": "disulfides C88-C92 (intra)"}, "B9": {"name": "SEQ ID NO: 268, cysteine pairs C23-C27^a (designed binder)", "chain": "VDFSDVGWNDWIVAPPGYHAFYCHGECPFPLADHLNSTNHAIVQTLVNSVAQAKHKQRKRLKSSCKRHPLYNSKIPKACCVPTELSAISMLYLDENEKVVLKNYQDMVVEGCGCR", "modifications": "disulfides C23-C27 (intra)"}, "B10": {"name": "SEQ ID NO: 276, cysteine pairs C67-C71^a (designed binder)", "chain": "NSKIPKACCVPTELSAISMLYLDENEKVVLKNYQDMVVEGCGCRVDFSDVGWNDWIVAPPGYHAFYCHGECPFPLADHLNSTNHAIVQTLVNSVAQAKHKQRKRLKSSCKRHPLY", "modifications": "disulfides C67-C71 (intra)"}, "B11": {"name": "SEQ ID NO: 300, cysteine pairs C23-C27^a (designed binder)", "chain": "VDFKDVGWNDHAVAPPGYHAFYCHGECPFPLADHLNSDNHAIVQTKVNSVGQAKRKGYKRLKSSCKRHPLYNSKDPKACCVPTELSAPSPLYLDENEKPVLKNYQDMVVHGCGCR", "modifications": "disulfides C23-C27 (intra)"}, "B12": {"name": "SEQ ID NO: 308, cysteine pairs C88-C92^a (designed binder)", "chain": "NSKDPKACCVPTELSAPSPLYLDENEKPVLKNYQDMVVHGCGCRGQAKRKGYKRLKSSCKRHPLYVDFKDVGWNDHAVAPPGYHAFYCHGECPFPLADHLNSDNHAIVQTKVNSV", "modifications": "disulfides C88-C92 (intra)"}, "B13": {"name": "SEQ ID NO: 308, cysteine pairs C8-C43^a, C9-C41^a, C88-C92^a (designed binder)", "chain": "B12 chain", "modifications": "disulfides C8-C43 (intra), C9-C41 (intra), C88-C92 (intra)"}, "B14": {"name": "SEQ ID NO: 348, cysteine pairs C88-C92^a (designed binder)", "chain": "GQAKRKGYKRLKSSCKRHPLYNSKIPKACCVPTELSAISMLYLDENEKVVLKNYQDMVVEGCGCRVDFSDVGWNDWIVAPPGYHAFYCHGECPFPLADHLNSTNHAIVQTLVNSV", "modifications": "disulfides C88-C92 (intra)"}}, "note": "Where a chain is given by its changes, count along the chain named.", "data": [{"biological_target": "T1, extracellular domain of activin receptor type IIB (ActRIIBecd), biotinylated (Homo sapiens (Human), UniProt Q13705 27-117, amino-biotinylated with amine-PEG3-Biotin)", "T1 construct": "immobilised on a streptavidin-coated sensor chip; also called biotinylated ActRIIBecd; extracellular domain of ActRIIB", "T1 sequence": "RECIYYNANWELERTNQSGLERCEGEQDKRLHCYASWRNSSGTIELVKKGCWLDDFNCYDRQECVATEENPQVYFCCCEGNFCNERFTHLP", "assay": "Mean KD column of Table 5; method not restated (BIAcore as Example 5)", "procedure": "Biosensor experiments. In one embodiment, experiments were performed on a BIAcore™ T100/T200 instrument (Pharmacia Biosensor AB) in the multichannel mode (serial flow path involving flow cells 1+2+3+4). Flow rate was 10 μl/min; temperature was 25° C.; and data were recorded at 2.5 points/s. All four segments of a sensor chip CMS were coated with streptavidin (Sigma) to a density of 2000 pg/mm² (2000 resonance units) by the aminocoupling procedure. ActRIIBecd (10 mg) and amine-PEG3-Biotin (10 mg, Pierce, Rockford, Ill.) were dissolved in 200 μl H₂O and 10 mg NaCNBH₃ was added to prepare biotinylated ActRIIBecd. The reaction mixture was heated at 70° C. for 24 h, after that a further 10 mg NaCNBH₃ was added and the reaction was heated at 70° C. for another 24 h. After cooling to room temperature, the mixture was desalted with the spin column (3,000 molecular weight cut off (MWCO)). Biotinylated ActRIIBecd was collected, freeze-dried and used for streptavidin (SA) chip preparation. Amino-biotinylated ActRIIBecd was then immobilized independently on flow cells 2-4 for 10 minutes at a flow rate of 5 μL/min and a concentration of 20 μM in 10 mM sodium acetate, pH 4.0, at a density of 50-250 resonance units (RU). The stored polypeptides were dissolved in glycine buffer (2.5 g of glycine, 0.5 g of sucrose, 370 mg of L-glutamate, 10 mg of sodium chloride, and 10 mg of Tween 80 in 100 mL water, pH 4.5) to prepare 10 mg/mL solution and then diluted with previous glycine buffer to prepare analytes with various concentration. Sensograms were recorded during flow of the analyte (the ActRIIBecd-associated polypeptides (i.e., domains) as previously described) first through flow cell 1 (control) then through flow cell 2 (biotinylated ActRIIBecd). The sensogram obtained for flow cell 1 was subtracted from the sensogram obtained for flow cell 2. The sensograms obtained at 1.11, 3.33, 10, 30, and 90 nM analyte were evaluated for equilibrium binding, association rate, and dissociation rate by using the programs supplied with the instrument (BIA evaluation 2.1; Software Handbook. 1995; Pharmacia Biosensor AB).", "units": {"Kd": "nM"}, "values": [{"binder": "B1", "Kd": 6.17}, {"binder": "B2", "Kd": 8.04}, {"binder": "B3", "Kd": 6.05}, {"binder": "B4", "Kd": 4.04}, {"binder": "B5", "Kd": 4.03}, {"binder": "B6", "Kd": 8.75}, {"binder": "B7", "Kd": 7.81}, {"binder": "B8", "Kd": 8.14}, {"binder": "B9", "Kd": 8.41}, {"binder": "B10", "Kd": 7.41}, {"binder": "B11", "Kd": 8.92}, {"binder": "B12", "Kd": 7.8}, {"binder": "B13", "Kd": 10.9}, {"binder": "B14", "Kd": 4.51}]}]}
